Test results published in US20260274910A1, “SINGLE FUSION PROTEIN AND PHARMACEUTICAL COMPOSITION” (MEDI&GENE INC., priority 2023, published 2026).
Values belong to the substance of their own block, whether it stands above or below them.

Assays:
ATP5B protein = ATP5B protein (Homo sapiens, UniProt P06576); experiment: SPR binding ability test; conditions: ATP5B on CM5 chip, flow rate 50 μl/min, relative to control shortened sequence (SEQ ID NO: 12)
Experimental: In order to evaluate substitutable residues within a sequence, an SPR (surface plasma resonance) test was conducted. Specifically, the ATP5B protein was conjugated to a CM5 chip by amine-conjugation, and then the contact of each test substance was observed under the condition of a flow rate of 50 μl/min, and the refractive index was measured. Thereafter, by converting each binding unit, the binding ability was compared and evaluated. […] A decrease of 10% or more in binding ability was considered to indicate a negative effect of the substitution.

[1] = test system: MDA-MB-231 triple-negative breast cancer cell line; experiment: MTT cell viability in breast cancer cells; assay type: cell-based; conditions: 1 μM, 48 hours; compared with Control (PBS), SEQ ID NO: 4 and SEQ ID NO: 5
Experimental: Next, the test substances, the fusion proteins (SEQ ID NO: 1, 2, 3, 7, 14, 15) and shortened sequences (SEQ ID NOs: 9, 10, 11, 12) were treated to MDA-MB-231 triple-negative breast cancer cell line at a concentration of 1 μM (Control: PBS) for 48 hours. Thereafter, the cells were washed with PBS once, and the cells were suspended in serum-free buffer. The MTT (3-[4,5-dimethylthiazol-2-yl]-2,5-diphenyltetrazolium bromide) substance was added thereto at 0.5 mg/ml and incubated at 37° C. for 2 hours. Then, they were washed with PBS once, and the cells were lysed with DMSO for 15 minutes. The solution was transferred to a new plate and the absorbance was measured at 590 nm using a microplate reader.

MDA-MB-231 cell line = experiment: Reactive oxygen generation (DCF-FA) in breast cancer cells; assay type: cell-based; conditions: 1 μM, 24 hours; compared with Control and SEQ ID NO: 5
Experimental: In addition, in order to examine generation of reactive oxygen that plays an important role in cancer cell death, each test substance was treated to the MDA-MB-231 cell line at a concentration of 1 μM (Control: PBS) for 24 hours. Then, the cells were stained with DCF-FA and their fluorescence values were observed and compared at 485/535 nm.

cAMP (cyclic AMP) = experiment: cAMP level (hTRF) in undifferentiated 3T3-L1 cells; assay type: cell-based, mouse; conditions: undifferentiated 3T3-L1, 100 nM with 0.5 mM IBMX, 30 minutes; compared with Control and SEQ ID NO: 5
Experimental: To observe the functionality of the fusion proteins related to lipid metabolism, the 3T3-L1 mouse pre-adipocyte cell line was used as the cell line itself (undifferentiated) or by differentiating into adipocytes. Differentiation into the adipocytes was performed by inducing primary differentiation for the 3T3-L1 cells in a medium containing DMEM, 10% FBS, 10 μg/ml insulin, 0.5 mM IBMX (3-Isobutyl-1-methylxanthine), and 1 μM dexamethasone for 2 days, and inducing secondary differentiation with a medium containing DMEM, 10% FBS, and 10 μg/ml insulin for the remaining 4 days. The adipocytes in which differentiation was finally completed were treated with the test substances at a concentration of 100 nM for 30 hours (Control: PBS) and then used for each test.
Next, changes in cAMP (cyclic AMP), a signaling mediator contributing to lipolysis and energy metabolism were evaluated in the undifferentiated adipocytes. The undifferentiated cells were treated with the test substances at a concentration of 100 nM (Control: PBS) with 0.5 mM IBMX for 30 minutes. Thereafter, the level of cAMP was evaluated by the hTRF (Homogeneous Time Resolved Fluorescence) method (using CAMP Gs dynamic kit from Cisbio). As a result of the measurement, it was confirmed that the level of cAMP was higher in the groups treated with the fusion proteins (SEQ ID NOs: 1, 2, 3, 7, 13, 14, 15) and shortened sequences (sequences 9, 10, 11) compared with the Control and His tag-wild-type substance (1-81) (SEQ ID NO: 5) (FIG. 7).

[2] = test system: SH-SY5Y dopaminergic neuron cell line; experiment: MTT cell viability of neuron cells under rotenone; assay type: cell-based; conditions: 1 µM rotenone + 100 nM test substance, 24 hours; compared with rotenone alone
Experimental: (§1) The SH-SY5Y dopaminergic neuron cell line was treated with 1 µM of a toxic substance, rotenone and 100 nM of each test substance simultaneously. After 24 hours, the MTT cell viability or the effect of reducing reactive oxygen was observed.

[3] = test system: SH-SY5Y dopaminergic neuron cell line; experiment: Reactive oxygen in neuron cells under rotenone; assay type: cell-based; conditions: 1 µM rotenone + 100 nM test substance, 24 hours; compared with rotenone alone
Experimental: as §1

Chain of ATP5B protein (P06576 48-529, species assumed): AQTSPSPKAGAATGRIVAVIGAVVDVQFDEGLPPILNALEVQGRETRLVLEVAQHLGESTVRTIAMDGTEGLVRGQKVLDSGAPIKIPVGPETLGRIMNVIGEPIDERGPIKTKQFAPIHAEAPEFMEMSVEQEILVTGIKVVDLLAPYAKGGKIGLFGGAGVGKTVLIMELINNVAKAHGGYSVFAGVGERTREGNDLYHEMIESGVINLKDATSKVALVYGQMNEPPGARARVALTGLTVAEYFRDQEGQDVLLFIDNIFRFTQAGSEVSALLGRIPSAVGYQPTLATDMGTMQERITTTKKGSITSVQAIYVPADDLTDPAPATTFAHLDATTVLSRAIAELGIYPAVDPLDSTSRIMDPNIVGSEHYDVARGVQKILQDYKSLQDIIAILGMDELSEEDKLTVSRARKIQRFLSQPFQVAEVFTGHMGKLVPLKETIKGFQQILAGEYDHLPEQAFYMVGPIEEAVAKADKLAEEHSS

- Binding (%) (ATP5B protein): 98.5%
Substance: SEQ ID NO: 20: Shortened substance (8-35) amino acid Ala substituted (13) VDRGAASIREAGGAFGKREQAEEERYFR

- Binding (%) (ATP5B protein): 102.3%
Substance: SEQ ID NO: 28: Shortened substance (8-35) amino acid Ala substituted (23) VDRGAGSIREAGGAFAKREQAEEERYFR

- Binding (%) (ATP5B protein): 94.1%
Substance: SEQ ID NO: 31: Shortened substance (8-35) amino acid Ala substituted (26) VDRGAGSIREAGGAFGKRAQAEEERYFR

- Binding (%) (ATP5B protein): 94.0%
Substance: SEQ ID NO: 34: Shortened substance (8-35) amino acid Ala substituted (30) VDRGAGSIREAGGAFGKREQAEAERYFR

- Binding (%) (ATP5B protein): 91.6%
Substance: SEQ ID NO: 17: Shortened substance (8-35) amino acid Ala substituted (9) VARGAGSIREAGGAFGKREQAEEERYFR

- Binding (%) (ATP5B protein): 100.5%
Substance: SEQ ID NO: 29: Shortened substance (8-35) amino acid Ala substituted (24) VDRGAGSIREAGGAFGAREQAEEERYFR

- Binding (%) (ATP5B protein): 104.2%
Substance: SEQ ID NO: 18: Shortened substance (8-35) amino acid Ala substituted (10) VDAGAGSIREAGGAFGKREQAEEERYFR

- Binding (%) (ATP5B protein): 89.6%
Substance: SEQ ID NO: 25: Shortened substance (8-35) amino acid Ala substituted (19) VDRGAGSIREAAGAFGKREQAEEERYFR

- Binding (%) (ATP5B protein): 100.0%
Substance: SEQ ID NO: 19: Shortened substance (8-35) amino acid Ala substituted (11) VDRAAGSIREAGGAFGKREQAEEERYFR

- Binding (%) (ATP5B protein): 168.7%
Substance: SEQ ID NO: 24: Shortened substance (8-35) amino acid Ala substituted (17) VDRGAGSIRAAGGAFGKREQAEEERYFR

- Binding (%) (ATP5B protein): 157.9%
Substance: SEQ ID NO: 35: Shortened substance (8-35) amino acid Ala substituted (31) VDRGAGSIREAGGAFGKREQAEEARYFR

- Binding (%) (ATP5B protein): 98.8%
Substance: SEQ ID NO: 21: Shortened substance (8-35) amino acid Ala substituted (14) VDRGAGAIREAGGAFGKREQAEEERYFR

- Binding (%) (ATP5B protein): 94.0%
Substance: SEQ ID NO: 27: Shortened substance (8-35) amino acid Ala substituted (22) VDRGAGSIREAGGAAGKREQAEEERYFR

- Binding (%) (ATP5B protein): 145.8%
Substance: SEQ ID NO: 37: Shortened substance (8-35) amino acid Ala substituted (33) VDRGAGSIREAGGAFGKREQAEEERAFR

More lines, now with the values behind:

Substance: SEQ ID NO: 16: Shortened substance (8-35) amino acid Ala substituted (8) ADRGAGSIREAGGAFGKREQAEEERYFR
- Binding (%) (ATP5B protein): 101.4%

Substance: SEQ ID NO: 12: Synthetic peptide: Shortened substance (8-35) VDRGAGSIREAGGAFGKREQAEEERYFR (listed as Homo sapiens)
- Cell viability (MTT) [1]: significantly low
- Binding (%) (ATP5B protein): 100.0%

Substance: SEQ ID NO: 22: Shortened substance (8-35) amino acid Ala substituted (15) VDRGAGSAREAGGAFGKREQAEEERYFR
- Binding (%) (ATP5B protein): 99.3%

Substance: SEQ ID NO: 9: Synthetic peptide: Shortened substance (1-60) (GSDQSENVDRGAGSIREAGGAFGKREQAEEERYFRAQSREQLAALKKHHEEEIVHHKKEI; listed as Homo sapiens)
- Cell viability (MTT) [1]: significantly low
- Reactive oxygen generation (MDA-MB-231 cell line): generated higher
- Level of cAMP (cAMP (cyclic AMP)): higher
- Cell viability (MTT) [2]: significantly increased
- Generation of reactive oxygen [3]: significantly inhibited

Substance: SEQ ID NO: 26: Shortened substance (8-35) amino acid Ala substituted (20) VDRGAGSIREAGAAFGKREQAEEERYFR
- Binding (%) (ATP5B protein): 68.0%

Substance: SEQ ID NO: 33: Shortened substance (8-35) amino acid Ala substituted (29) VDRGAGSIREAGGAFGKREQAAEERYFR
- Binding (%) (ATP5B protein): 96.7%

Substance: SEQ ID NO: 30: Shortened substance (8-35) amino acid Ala substituted (25) VDRGAGSIREAGGAFGKAEQAEEERYFR
- Binding (%) (ATP5B protein): 85.2%

Substance: SEQ ID NO: 23: Shortened substance (8-35) amino acid Ala substituted (16) VDRGAGSIAEAGGAFGKREQAEEERYFR
- Binding (%) (ATP5B protein): 97.0%

Substance: SEQ ID NO: 36: Shortened substance (8-35) amino acid Ala substituted (32) VDRGAGSIREAGGAFGKREQAEEEAYFR
- Binding (%) (ATP5B protein): 426.0%

Substance: SEQ ID NO: 11: Synthetic peptide: Shortened amino acid modified substance (10-49; H49K mutation introduced) RGAGSIREAGGAFGKREQAEEERYFRAQSREQLAALKKHK
- Cell viability (MTT) [1]: significantly low
- Reactive oxygen generation (MDA-MB-231 cell line): generated higher
- Level of cAMP (cAMP (cyclic AMP)): higher
- Cell viability (MTT) [2]: significantly increased
- Generation of reactive oxygen [3]: significantly inhibited

Substance: SEQ ID NO: 39: Shortened substance (8-35) amino acid Ala substituted (35) VDRGAGSIREAGGAFGKREQAEEERYFA
- Binding (%) (ATP5B protein): 109.6%

Substance: SEQ ID NO: 38: Shortened substance (8-35) amino acid Ala substituted (34) VDRGAGSIREAGGAFGKREQAEEERYAR
- Binding (%) (ATP5B protein): 92.1%

Substance: SEQ ID NO: 10: Synthetic peptide: Shortened substance (1-47) GSDQSENVDRGAGSIREAGGAFGKREQAEEERYFRAQSREQLAALKK (listed as Homo sapiens)
- Cell viability (MTT) [1]: significantly low
- Reactive oxygen generation (MDA-MB-231 cell line): generated higher
- Level of cAMP (cAMP (cyclic AMP)): higher
- Cell viability (MTT) [2]: significantly increased
- Generation of reactive oxygen [3]: significantly inhibited

Substance: SEQ ID NO: 32: Shortened substance (8-35) amino acid Ala substituted (27) VDRGAGSIREAGGAFGKREAAEEERYFR
- Binding (%) (ATP5B protein): 89.5%
